These results are taken from article PMC11903955.

The data set concerns the target T1, CDK8 (Arabidopsis thaliana, UniProt Q84TI6 1-470).
T1 sequence: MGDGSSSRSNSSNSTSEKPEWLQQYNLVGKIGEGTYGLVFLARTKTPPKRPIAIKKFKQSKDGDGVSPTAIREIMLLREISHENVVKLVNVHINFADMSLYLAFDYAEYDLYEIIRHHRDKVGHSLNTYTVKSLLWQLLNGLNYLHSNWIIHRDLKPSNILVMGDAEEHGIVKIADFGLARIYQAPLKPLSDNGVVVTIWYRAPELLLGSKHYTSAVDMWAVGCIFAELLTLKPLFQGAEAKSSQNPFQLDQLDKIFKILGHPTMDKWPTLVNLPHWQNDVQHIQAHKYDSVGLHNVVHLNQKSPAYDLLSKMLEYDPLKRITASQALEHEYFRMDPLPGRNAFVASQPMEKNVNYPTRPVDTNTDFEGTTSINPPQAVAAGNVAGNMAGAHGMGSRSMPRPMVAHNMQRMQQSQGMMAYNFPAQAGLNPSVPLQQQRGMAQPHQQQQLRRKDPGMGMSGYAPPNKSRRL
Nature of the data set: EMSA.

B1: AT-rich probe (dsDNA)
DNA 1: TAACACATATTTTGATAAATTTATTACTAAAACTATTTT
DNA 2: AAAATAGTTTTAGTAATAAATTTATCAAAATATGTGTTA
In the case of B1, the binding result is given as “no binding”.
